# According to publication PMC4357396:
# Molecular target: biotinylated HLA-A*0201-…
# Assay: SPR; BIAcore T100, CM5 chip; A2-EAA on the chip, MEL5 injected (ten serial dilutions, 45 uL/min); KDs by equilibrium analysis in triplicate at 5, 10, 15, 20, 25 and 30°C, nonlinear van't Hoff fit with T0 = 298 K; 10 mM HEPES pH 7.4, 150 mM NaCl, 3 mM EDTA, 0.005% P20; HLA-A*0201-… as negative control surface
substance,measurement,value
MEL5 TCR,dH,-58.6 kJ/mol
